In patent US20060204492A1 (published 2006):
Where two headings read alike, the source gives them in different places.

How the values were obtained:
Assay in all cases: SPR (BIAcore), purified Fab over immobilized αvβ3
[1] = molecular target: T1, integrin αvβ3, purified from human placenta (human, UniProt P06756 31-1048; P05106 27-788)
T1 construct: mature; Native heterodimer, immobilized on ELISA plates or on the BIAcore chip; biotinylated in capture lift and capture ELISA screens; also called αvβ3 receptor; vitronectin receptor
T1 sequence (P06756 31-1048, form in doubt, chain 1 of 2): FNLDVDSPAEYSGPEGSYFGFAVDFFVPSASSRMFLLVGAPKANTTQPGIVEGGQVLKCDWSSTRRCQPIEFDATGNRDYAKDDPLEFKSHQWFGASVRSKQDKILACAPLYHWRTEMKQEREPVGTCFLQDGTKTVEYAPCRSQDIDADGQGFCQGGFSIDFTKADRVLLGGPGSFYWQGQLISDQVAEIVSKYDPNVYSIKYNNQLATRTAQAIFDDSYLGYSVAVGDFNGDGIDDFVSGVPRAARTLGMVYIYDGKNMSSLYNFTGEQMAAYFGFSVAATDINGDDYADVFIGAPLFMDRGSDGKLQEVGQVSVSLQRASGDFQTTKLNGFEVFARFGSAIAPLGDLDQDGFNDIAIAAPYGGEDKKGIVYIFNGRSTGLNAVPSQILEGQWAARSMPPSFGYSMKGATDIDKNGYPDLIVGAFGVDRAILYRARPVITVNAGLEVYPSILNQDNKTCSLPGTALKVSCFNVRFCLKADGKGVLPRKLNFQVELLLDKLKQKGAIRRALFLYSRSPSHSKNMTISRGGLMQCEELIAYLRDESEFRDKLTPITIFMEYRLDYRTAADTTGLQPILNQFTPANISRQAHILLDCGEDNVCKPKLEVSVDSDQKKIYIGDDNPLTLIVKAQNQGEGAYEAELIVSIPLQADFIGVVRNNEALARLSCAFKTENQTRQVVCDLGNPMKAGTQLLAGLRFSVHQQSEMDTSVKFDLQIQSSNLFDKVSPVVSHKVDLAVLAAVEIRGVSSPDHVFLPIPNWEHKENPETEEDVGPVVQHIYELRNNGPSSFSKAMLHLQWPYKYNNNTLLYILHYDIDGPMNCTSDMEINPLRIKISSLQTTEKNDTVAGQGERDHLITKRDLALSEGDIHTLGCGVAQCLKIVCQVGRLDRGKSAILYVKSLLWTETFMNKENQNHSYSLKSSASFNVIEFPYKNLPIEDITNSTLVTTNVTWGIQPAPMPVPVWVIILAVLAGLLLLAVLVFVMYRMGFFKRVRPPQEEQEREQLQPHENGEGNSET
T1 sequence (P05106 27-788, form in doubt, chain 2 of 2): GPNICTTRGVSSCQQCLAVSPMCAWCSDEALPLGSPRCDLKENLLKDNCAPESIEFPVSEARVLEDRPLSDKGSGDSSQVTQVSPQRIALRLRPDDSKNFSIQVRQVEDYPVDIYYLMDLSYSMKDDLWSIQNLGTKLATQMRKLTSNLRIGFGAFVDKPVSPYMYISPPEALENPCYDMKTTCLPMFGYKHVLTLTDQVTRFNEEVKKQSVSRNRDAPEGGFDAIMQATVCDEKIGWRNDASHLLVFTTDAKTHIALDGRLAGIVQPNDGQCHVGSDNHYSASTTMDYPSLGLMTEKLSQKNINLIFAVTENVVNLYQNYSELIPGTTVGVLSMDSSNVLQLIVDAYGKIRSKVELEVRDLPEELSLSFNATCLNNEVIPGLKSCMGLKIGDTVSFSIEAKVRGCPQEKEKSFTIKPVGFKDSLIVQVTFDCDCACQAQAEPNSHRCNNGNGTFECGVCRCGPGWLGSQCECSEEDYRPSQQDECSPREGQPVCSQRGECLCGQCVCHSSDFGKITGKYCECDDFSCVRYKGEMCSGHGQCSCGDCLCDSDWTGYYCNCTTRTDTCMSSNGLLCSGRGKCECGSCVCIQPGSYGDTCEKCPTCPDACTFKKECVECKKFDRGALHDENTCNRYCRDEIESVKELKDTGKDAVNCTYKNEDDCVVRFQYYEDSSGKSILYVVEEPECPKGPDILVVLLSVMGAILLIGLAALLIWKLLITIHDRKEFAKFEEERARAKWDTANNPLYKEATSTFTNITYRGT
Method: (§1) The affinities of select variants were further characterized by utilizing surface plasmon resonance (BIAcore) to measure the association and dissociation rates of purified Fab with immobilized αᵥβ₃. […] To obtain association rate constants (kₒₙ), the binding rate at five different Fab concentrations, ranging from 5-40 μg/ml in 50 mM Tris-HCl, pH 7.4, 100 mM NaCl, 2 mM CaCl₂, and 1 mM MgCl₂, was determined at a flow rate of 10 μl/min. Dissociation rate constants (koff) were the average of five measurements obtained by analyzing the dissociation phase at an increased flow rate (40 μl/min). Sensorgrams were analyzed with the BIAevaluation 2.1 program (Pharmacia). Residual Fab was removed after each measurement with 10 mM HCl, 2 mM CaCl₂ and 1 mM MgCl₂.

[2] = molecular target: T1, integrin αvβ3, purified from human …; remark: listed apart in the source
Method: as §1

[3] = molecular target: T1, integrin αvβ3, purified from human …; remark: listed apart in the source

Row | Binder | Kd [1] [nM] | koff [1] [s⁻¹] | kon [1] [M⁻¹ s⁻¹] | Kd [2] [nM] | koff [2] [s⁻¹] | kon [2] [M⁻¹ s⁻¹] | fold enhanced affinity over parent LM609 grafted antibody [3] [fold] | fold slower dissociation rate than parent [3] [fold] | fold greater association rate than parent [3] [fold] | fold greater affinity than parent LM609 grafted antibody [3] [fold] | fold greater affinity than LM609 grafted antibody Fab [3] [fold]
1 | LM609 grafted antibody Fab (Fab, V domains shown, Fab expressed from M13 phage vector, human kappa chain, peptide tag on the carboxyl-terminus of the heavy chain; also called LM609 grafted Fab; parent LM609 grafted antibody) VH: QVQLVESGGGVVQPGRSLRLSCAASGFTFSSYDMSWVRQAPGKGLEWVAKVSSGGGSTYYLDTVQGRFTISRDNSKNTLYLQMNSLRAEDTAVYYCARHNYGSFAYWGQGTTVTVSS VL: EIVLTQSPATLSLSPGERATLSCQASQSISNHLHWYQQRPGQAPRLLIRYRSQSISGIPARFSGSGSGTDFTLTISSLEPEDFAVYYCQQSGSWPHTFGGGTKVEIK | 27.6 | 0.00497 | 180000 | 27.6 | 0.00497 | 180000 | – | – | – | – | –
2 | LM609 grafted antibody combinatorial clone 2G4 (Fab, V domains shown, Fab) VH: QVQLVESGGGVVQPGRSLRLSCAASGFTFSSYDMSWVRQAPGKGLEWVAKVSSGGGSTYYLDTVQGRFTISRDNSKNTLYLQMNSLRAEDTAVYYCARHNYGSFASWGQGTTVTVSS VL: EIVLTQSPATLSLSPGERATLSCQASQSISNHLHWYQQRPGQAPRLLIRYRSQSISGIPARFSGSGSGTDFTLTISSLEPEDFAVYYCQQSGSWPLTFGGGTKVEIK | – | – | – | 0.4 | 0.000229 | 603000 | > 50 | > 10 | – | – | –
3 | LM609 grafted antibody combinatorial clone 6D1 (Fab, V domains shown, Fab) VH: QVQLVESGGGVVQPGRSLRLSCAASGFTFSSYDMSWVRQAPGKGLEWVAKVSSGGGSTYYPDTVQGRFTISRDNSKNTLYLQMNSLRAEDTAVYYCARHNYGSFYSWGQGTTVTVSS VL: EIVLTQSPATLSLSPGERATLSCQASQSISNHLHWYQQRPGQAPRLLIRYRSQSISGIPARFSGSGSGTDFTLTISSLEPEDFAVYYCQQSGSWPLTFGGGTKVEIK | – | – | – | 0.4 | 0.000158 | 410000 | – | > 10 | – | – | –
4 | LM609 grafted antibody combinatorial clone 6G1 (Fab, V domains shown, Fab) VH: QVQLVESGGGVVQPGRSLRLSCAASGFTFSSYDMSWVRQAPGKGLEWVAKVSSGGGSTYYPDTVQGRFTISRDNSKNTLYLQMNSLRAEDTAVYYCARHNYGSFASWGQGTTVTVSS VL: EIVLTQSPATLSLSPGERATLSCQASQSISNHLHWYQQRPGQAPRLLIRYRSQSISGIPARFSGSGSGTDFTLTISSLEPEDFAVYYCQQSGSWPLTFGGGTKVEIK | – | – | – | 0.7 | 0.00028 | 389000 | – | > 10 | 2 to 4 | – | –
5 | LM609 grafted antibody combinatorial clone 6H6 (Fab, V domains shown, Fab) VH: QVQLVESGGGVVQPGRSLRLSCAASGFTFSSYDMSWVRQAPGKGLEWVAKVSSGGGSTYYLDTVQGRFTISRDNSKNTLYLQMNSLRAEDTAVYYCARHNHGSFASWGQGTTVTVSS VL: EIVLTQSPATLSLSPGERATLSCQASQSISNHLHWYQQRPGQAPRLLIRYRSQSISGIPARFSGSGSGTDFTLTISSLEPEDFAVYYCQQSGSWPLTFGGGTKVEIK | – | – | – | 0.4 | 0.000187 | 504000 | – | > 10 | – | – | –
6 | LM609 grafted antibody combinatorial clone 7 (Fab, V domains shown, Fab) VH: QVQLVESGGGVVQPGRSLRLSCAASGFTFSSYDMSWVRQAPGKGLEWVAKVSSGGGSTYYPDTVQGRFTISRDNSKNTLYLQMNSLRAEDTAVYYCARHNHGSFASWGQGTTVTVSS VL: EIVLTQSPATLSLSPGERATLSCQASQSISNFLHWYQQRPGQAPRLLIRYRSQSISGIPARFSGSGSGTDFTLTISSLEPEDFAVYYCQQSGSWPHTFGGGTKVEIK | – | – | – | 1.2 | 0.000236 | 204000 | – | > 10 | – | – | –
7 | LM609 grafted antibody combinatorial clone 8F9 (Fab, V domains shown, Fab) VH: QVQLVESGGGVVQPGRSLRLSCAASGFTFSSYDMSWVRQAPGKGLEWVAKVSSGGGSTYYPDTVQGRFTISRDNSKNTLYLQMNSLRAEDTAVYYCARHNHGSFASWGQGTTVTVSS VL: EIVLTQSPATLSLSPGERATLSCQASQSISNHLHWYQQRPGQAPRLLIRYRSQSISGIPARFSGSGSGTDFTLTISSLEPEDFAVYYCQQSGSWPLTFGGGTKVEIK | – | – | – | 0.6 | 0.00028 | 475000 | – | > 10 | – | – | –
8 | LM609 grafted antibody combinatorial clone 17 (Fab, V domains shown, Fab) VH: QVQLVESGGGVVQPGRSLRLSCAASGFTFSSYDMSWVRQAPGKGLEWVAKVSSGGGSTYYLDTVQGRFTISRDNSKNTLYLQMNSLRAEDTAVYYCARHNYGSFASWGQGTTVTVSS VL: EIVLTQSPATLSLSPGERATLSCQASQSISNFLHWYQQRPGQAPRLLIRYRSQSISGIPARFSGSGSGTDFTLTISSLEPEDFAVYYCQQSGSWPHTFGGGTKVEIK | – | – | – | 0.5 | 0.000138 | 251000 | > 50 | > 10 | – | – | –
9 | LM609 grafted antibody combinatorial clone 56 (Fab, V domains shown, Fab) VH: QVQLVESGGGVVQPGRSLRLSCAASGFTFSSYDMSWVRQAPGKGLEWVAKVSSGGGSTYYPDTVQGRFTISRDNSKNTLYLQMNSLRAEDTAVYYCARHNYGSFASWGQGTTVTVSS VL: EIVLTQSPATLSLSPGERATLSCQASQSISNFLHWYQQRPGQAPRLLIRYRSQSISGIPARFSGSGSGTDFTLTISSLEPEDFAVYYCQQSGSWPHTFGGGTKVEIK | – | – | – | 0.5 | 0.000135 | 266000 | – | > 10 | – | – | –
10 | LM609 grafted antibody combinatorial clone C29 (Fab, V domains shown, Fab) VH: QVQLVESGGGVVQPGRSLRLSCAASGFTFSSYDMSWVRQAPGKGLEWVAKVSSGGGSTYYPDTVQGRFTISRDNSKNTLYLQMNSLRAEDTAVYYCARHNHGSFYSWGQGTTVTVSS VL: EIVLTQSPATLSLSPGERATLSCQASQSISNHLHWYQQRPGQAPRLLIRYRSQSISGIPARFSGSGSGTDFTLTISSLEPEDFAVYYCQQSGSWPLTFGGGTKVEIK | – | – | – | 0.5 | 0.000343 | 675000 | – | > 10 | 2 to 4 | ~55 | –
11 | LM609 grafted antibody combinatorial clone C37 (Fab, V domains shown, Fab) VH: QVQLVESGGGVVQPGRSLRLSCAASGFTFSSYDMSWVRQAPGKGLEWVAKVSSGGGSTYYLDTVQGRFTISRDNSKNTLYLQMNSLRAEDTAVYYCARHNYGSFYEWGQGTTVTVSS VL: EIVLTQSPATLSLSPGERATLSCQASQSISNHLHWYQQRPGQAPRLLIRYRSQSISGIPARFSGSGSGTDFTLTISSLEPEDFAVYYCQQSGSWPLTFGGGTKVEIK | – | – | – | 0.3 | 0.000147 | 448000 | – | > 10 | – | 92 | ~90
12 | LM609 grafted antibody combinatorial clone C59 (Fab, V domains shown, Fab) VH: QVQLVESGGGVVQPGRSLRLSCAASGFTFSSYDMSWVRQAPGKGLEWVAKVSSGGGSTYYPDTVQGRFTISRDNSKNTLYLQMNSLRAEDTAVYYCARHNYGSFADWGQGTTVTVSS VL: EIVLTQSPATLSLSPGERATLSCQASQSISNFLHWYQQRPGQAPRLLIRYRSQSISGIPARFSGSGSGTDFTLTISSLEPEDFAVYYCQQSGSWPHTFGGGTKVEIK | – | – | – | 0.5 | 0.000137 | 265000 | – | > 10 | – | – | –
13 | LM609 grafted antibody combinatorial clone C119 (Fab, V domains shown, Fab) VH: QVQLVESGGGVVQPGRSLRLSCAASGFTFSSYDMSWVRQAPGKGLEWVAKVSSGGGSTYYPDTVQGRFTISRDNSKNTLYLQMNSLRAEDTAVYYCARHNYGSFASWGQGTTVTVSS VL: EIVLTQSPATLSLSPGERATLSCQASQSISNHLHWYQQRPGQAPRLLIRYRSQSISGIPARFSGSGSGTDFTLTISSLEPEDFAVYYCQQSNSWPHTFGGGTKVEIK | – | – | – | 1.5 | 0.000316 | 215000 | – | > 10 | – | 18 | –
